The record followed here is publication PMC10253715.

For the assay, the target named is CD9-EGFP-FRB (UniProt P21926).

Take mCherry-FKBP12-luciferase: the luciferase activity in EVs released from co-transfected HEK-293 cells, rapamycin dose series for 24 h (rapamycin is the bridging compound) is 3 fold.
